Measured values taken from patent publication US20190135932A1 (Pfizer, published 2019).
“And” between values parts separate entries of the source, which are not always exact repeats. Identical values can stand only once.

T1: human OX40R-Ig fusion protein (extracellular domain, amino acids 1-220, of human OX40R fused to the constant … (human, UniProt P43489 29-220))
T1 construct: range 1-220; Range 1-220 as printed; also called OX40-Ig; OX40-human IgG1 fusion protein; not shown: constant region of human IgG1
T1 sequence (looked up): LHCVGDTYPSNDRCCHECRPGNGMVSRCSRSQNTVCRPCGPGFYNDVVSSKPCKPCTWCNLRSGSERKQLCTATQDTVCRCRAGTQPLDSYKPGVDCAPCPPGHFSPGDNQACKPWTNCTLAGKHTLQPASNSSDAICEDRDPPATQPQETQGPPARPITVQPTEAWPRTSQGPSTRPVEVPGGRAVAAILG

T2: Biotinylated CD134-muIg (Ancell 513-030) (UniProt P43489 29-214, biotinylated)
T2 construct: extracellular domain; Captured on streptavidin on a CM5 chip; also called OX40R extracellular domain fusion protein (Biacore ligand); not shown: murine Ig part (muIg) of the bought fusion
T2 sequence (looked up): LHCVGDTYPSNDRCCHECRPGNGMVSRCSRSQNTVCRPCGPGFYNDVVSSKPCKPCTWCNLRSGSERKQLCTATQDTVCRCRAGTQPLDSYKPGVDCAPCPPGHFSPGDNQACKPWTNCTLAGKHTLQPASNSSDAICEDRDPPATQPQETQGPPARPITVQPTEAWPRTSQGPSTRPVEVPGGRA

B1: human monoclonal antibody 18D8 (antibody, human IgG2, kappa, V domains shown)
VH: EVQLVESGGGLVQPGRSLRLSCAASGFTFDDYAMHWVRQAPGKGLEWVSGISWNSGSIGYADSVKGRFTISRDNAKNSLYLQMNSLRAEDTALYYCAKDQSTADYYFYYGMDVWGQGTTVTVSS
VL: EIVVTQSPATLSLSPGERATLSCRASQSVSSYLAWYQQKPGQAPRLLIYDASNRATGIPARFSGSGSGTDFTLTISSLEPEDFAVYYCQQRSNWPTFGQGTKVEIKR
B2: human monoclonal antibody 11D4 (antibody, V domains shown)
VH: EVQLVESGGGLVQPGGSLRLSCAASGFTFSSYSMNWVRQAPGKGLEWVSYISSSSSTIDYADSVKGRFTISRDNAKNSLYLQMNSLRDEDTAVYYCARESGWYLFDYWGQGTLVTVSS
VL: DIQMTQSPSSLSASVGDRVTITCRASQGISSWLAWYQQKPEKAPKSLIYAASSLQSGVPSRFSGSGSGTDFTLTISSLQPEDFATYYCQQYNSYPPTFGGGTKVEIKR
notes: IgG2 heavy chain, kappa light chain; allotypes G2(n-) and Km3; Alexa Fluor 647 conjugate was used in the species cross-reactivity FACS

Key:
[1] = molecular target: T1, human OX40R-Ig fusion protein …; assay: ELISA on coated OX40-Ig fusion protein
[2] = molecular target: T2, Biotinylated CD134-muIg (Ancell 513-030); assay: Biacore (SPR), biotinylated CD134-muIg captured on streptavidin, antibody in solution
Procedure: Biotinylated CD134-muIg (Ancell 513-030), at a concentration of 10 μg/ml at a flow rate of 5 μl/min was manually injected over Flow cells-2, 3 and 4 to achieve 3 surface densities: Fc-2=150RU, Fc-3=375RU and Fc-4=580RU. The different density surfaces were prepared to monitor the possibility of mass transport limited binding during association phase and rebinding during dissociation, both artifacts that are influenced by surface density that must be avoided.

[3] = molecular target: cynomolgus OX40R on activated cynomolgus monkey T cells / PBMCs (cynomolgus monkey); assay: cell-based or functional assay
[4] = molecular target: T3, CD271-Ig (Alexis Biochemicals) (human, UniProt P08138 29-250); assay: ELISA on coated receptor-Ig fusion proteins, against the EC50 on the OX40R fusion protein
T3 construct: extracellular domain; Bought; also called nerve growth factor receptor (CD271)
Procedure: (§1) Maxisorb 96-well plates (Nunc, Roskilde, Denmark) were coated with 100 μl of human TNFα receptor family member fusion proteins at 0.25 μg/ml diluted in BupH™ Carbonate buffer, pH 9.4 (Pierce, Rockford, Ill.) and incubated overnight at 4° C. The selectivity receptor fusion proteins tested included CD40-Ig (Alexis Biochemicals, San Diego, Calif.), CD137-Ig (R&D Systems, Minneapolis, Minn.) and CD271-Ig (Alexis Biochemicals, San Diego, Calif.). Also included as the positive control with each assay was the OX40-Ig fusion protein (in-house construct, Bioexpress, 97/2117). Plates were then washed three times with wash buffer containing 0.05% Tween 20 (Sigma, St Louis, Mo.) diluted in PBS and blocked with 300 μl of 0.5% BSA (Sigma, St Louis, Mo.) in PBS (Sigma, St Louis, Mo.) for 1 hour at RT°. Next, the plates were washed and 100 μl/well of anti-human OX40 reactive antibodies were added to the plates at various concentrations and incubated for 1 hour at RT°. Plates were thoroughly washed three times and OX40R antibody binding was detected with a horse radish peroxidase labeled anti-human kappa chain antibody (Bethyl Laboratories, Montgomery, Tex.) at 25 ng/ml for 1 hour at RD°. Plates were then washed three times which was followed by the addition of 100 μl/well of 1-Step Turbo-TMB substrate (Pierce, Rockford, Ill.) for 30 minutes at RT. The reaction was stopped by adding an equal volume of 2M H₂ SO₄. Absorbance was read at 450 nm on a Molecular Devices Spectra Max 340 (Molecular Devices, Sunnyvale, Calif.).

[5] = molecular target: T4, CD40-Ig (Alexis Biochemicals) (human, UniProt P25942 21-193); assay: as above
T4 construct: extracellular domain; Bought; also called CD40 receptor
Procedure: as §1

[6] = molecular target: T5, CD137-Ig (R&D Systems) (human, UniProt Q07011 24-186); assay: as above
T5 construct: extracellular domain; Bought; also called 4-1BB receptor (CD137)
Procedure: as §1

T3 sequence (P08138 29-250): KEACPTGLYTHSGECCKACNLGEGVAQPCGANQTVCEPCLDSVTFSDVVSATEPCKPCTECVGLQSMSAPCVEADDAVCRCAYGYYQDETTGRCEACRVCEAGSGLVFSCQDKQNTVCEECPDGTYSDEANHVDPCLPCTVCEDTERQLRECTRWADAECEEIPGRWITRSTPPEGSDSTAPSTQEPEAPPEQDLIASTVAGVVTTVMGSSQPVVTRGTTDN
T4 sequence (P25942 21-193): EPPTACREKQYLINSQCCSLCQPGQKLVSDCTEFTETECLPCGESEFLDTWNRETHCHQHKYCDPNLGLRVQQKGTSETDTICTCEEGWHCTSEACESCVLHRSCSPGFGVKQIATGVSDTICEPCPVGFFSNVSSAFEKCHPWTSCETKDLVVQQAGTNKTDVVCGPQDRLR
T5 sequence (Q07011 whole entry, the tested form may be a part): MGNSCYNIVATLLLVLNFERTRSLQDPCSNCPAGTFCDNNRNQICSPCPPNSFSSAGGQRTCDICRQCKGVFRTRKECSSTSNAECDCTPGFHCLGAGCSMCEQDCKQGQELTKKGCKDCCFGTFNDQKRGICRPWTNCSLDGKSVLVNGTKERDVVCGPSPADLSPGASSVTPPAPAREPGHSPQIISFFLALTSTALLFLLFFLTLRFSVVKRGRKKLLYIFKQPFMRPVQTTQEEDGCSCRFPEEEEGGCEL

Binder | EC50 [1] | Kd [2] | koff [2] [s⁻¹] | EC50 of anti-CD3 induced IL-2 production by monkey cells (mean of 1:3 dilution curves, N=3) [3] [µg/mL] | fold selectivity for the OX40R over this receptor [4] [fold] | fold selectivity for the OX40R over this receptor [5] [fold] | fold selectivity for the OX40R over this receptor [6] [fold]
B1 | 0.034 µg/mL and 0.23 nM | 0.49 µg/mL and 3.38 nM | 0.00029 | – | – | – | –
B2 | – | – | – | 0.022 | > 100 | > 100 | > 100
